Measured values reported in patent US20250277048A1 (Regeneron, published 2025).

T1: monkey CD40 extracellular domain expressed with a C-terminal myc-myc-hexahistidine tag (monkey)
T1 construct: also called mfCD40-MMH; REGN3097
T1 chain: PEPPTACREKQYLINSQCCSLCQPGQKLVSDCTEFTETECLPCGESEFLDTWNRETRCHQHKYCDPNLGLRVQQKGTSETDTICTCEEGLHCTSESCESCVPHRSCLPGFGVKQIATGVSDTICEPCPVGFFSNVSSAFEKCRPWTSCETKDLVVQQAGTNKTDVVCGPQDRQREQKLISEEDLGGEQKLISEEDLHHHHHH

T2: mouse CD40 extracellular domain expressed with a C-terminal myc-myc-hexahistidine tag (mouse)
T2 construct: also called mCD40-MMH; REGN3098
T2 chain: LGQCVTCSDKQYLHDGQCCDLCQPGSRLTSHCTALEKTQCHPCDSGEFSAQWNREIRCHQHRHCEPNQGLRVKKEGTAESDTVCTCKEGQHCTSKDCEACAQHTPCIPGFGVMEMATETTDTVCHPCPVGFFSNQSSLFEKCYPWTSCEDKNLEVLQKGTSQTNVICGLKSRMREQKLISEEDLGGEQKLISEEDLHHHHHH

B1: 30027P2 (antibody, human IgG4 S228P, kappa, V domains shown)
VH: EVQLVESGGGLVQPGGSLRLSCAASGFTFSSYAMNWVRQAPGKGLEWVSIISGTIGKTYYADSVKGRFTISRDNSKNTLYLQMNSLRGEDTAVYYCAKDTERDITGSPFDYWGQGTLVTVSS
VL: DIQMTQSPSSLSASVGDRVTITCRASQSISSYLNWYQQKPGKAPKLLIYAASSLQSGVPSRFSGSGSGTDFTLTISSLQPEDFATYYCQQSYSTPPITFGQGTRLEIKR
notes: parental bivalent anti-CD40 mAb; common light chain; also called H4sH30027P2
B2: 21519P2 (antibody, human IgG4 S228P, kappa, V domains shown)
VH: QLQLQESGPGLVRPSETLSLTCSVSGASMNTNNYYWGWIRQPPGKGLEWIGSGYYNGNTYYNPSLKSRVTISVDTSKNQFSLKLNSVTAADTAVYYCARQTPPRIIGSPNIWGQGTMVTVSS
VL: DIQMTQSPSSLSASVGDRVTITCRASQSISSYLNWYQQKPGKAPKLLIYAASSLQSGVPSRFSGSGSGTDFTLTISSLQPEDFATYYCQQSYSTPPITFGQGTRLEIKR
notes: parental bivalent anti-CD40 mAb; common light chain; also called H4sH21519P2

Legend:
[1] = molecular target: T3, human CD40 (hCD40) expressed on cells (human, UniProt P25942 21-277); assay: cell-based or functional assay
T3 sequence (P25942 21-277): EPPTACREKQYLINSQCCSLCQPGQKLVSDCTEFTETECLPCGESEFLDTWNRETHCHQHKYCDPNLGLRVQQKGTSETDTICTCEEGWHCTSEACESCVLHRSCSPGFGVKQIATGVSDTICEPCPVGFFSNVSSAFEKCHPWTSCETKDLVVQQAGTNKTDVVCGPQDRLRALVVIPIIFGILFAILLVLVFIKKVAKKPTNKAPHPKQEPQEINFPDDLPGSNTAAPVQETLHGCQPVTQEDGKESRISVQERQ

[2] = molecular target: T3, human CD40 (hCD40) expressed on cells; assay: cell-based or functional assay; remark: listed apart in the source
[3] = molecular target: T1, monkey CD40 extracellular domain …; assay: SPR Biacore 4000, mAb captured, 25C
Procedure: (§1) The equilibrium dissociation constants (KD) for anti-CD40 bivalent and bispecific monoclonal antibodies (mAbs) were determined using a real-time surface plasmon resonance (SPR)-based Biacore 4000 biosensor. All binding studies were performed in 10 mM HEPES, 150 mM NaCl, 3 mM EDTA, and 0.05% v/v surfactant Tween-20, pH 7.4 (HBS-ET) running buffer at 25° C. and 37° C. The Biacore CM5 sensor surface was first derivatized by amine coupling with a monoclonal mouse anti-human Fc antibody (REGN2567) to capture anti-CD40 bivalent parental and anti-CD40×CD40 bispecific antibodies. Different concentrations of CD40 reagents, human CD40 extracellular domain expressed with a C-terminal myc-myc-hexahistidine tag (SEQ ID NO: 1114) (“hCD40-MMH”; REGN3094; SEQ ID NO: 53), monkey CD40 extracellular domain expressed with a C-terminal myc-myc-hexahistidine tag (SEQ ID NO: 1114) (“mfCD40-MMH”; REGN3097; SEQ ID NO: 54), and mouse CD40 extracellular domain expressed with a C-terminal myc-myc-hexahistidine tag (SEQ ID NO: 1114) (“mCD40-MMH”; REGN3098; SEQ ID NO: 55), at concentrations ranging from 3.7 nM to 100 nM or 3.3 nM to 90 nM in a series of 3-fold dilutions prepared in HBS-ET running buffer were injected at a flow rate of 30 μL/min for 4 minutes or 50 μL/min for 5 minutes. The dissociation of different CD40 reagents bound to anti-CD40 bivalent parental and anti-CD40×CD40 bispecific antibodies was monitored for 10 minutes in HBS-ET running buffer. At the end of each cycle, the anti-CD40 bivalent parental and anti-CD40×CD40 bispecific antibodies capture surface was regenerated using a 12 sec injection of 20 mM H₃PO₄.
(§2) The association rate (ka) and dissociation rate (kd) were determined by fitting the real-time binding sensorgrams to a 1:1 binding model with mass transport limitation using Scrubber 2.0c curve-fitting software. Binding dissociation equilibrium constant (KD) and dissociative half-life (t_{1/2}) were calculated from the kinetic rates as: KD(M)=kd/kₐ, and t_{1/2} (min)=[ln(2)/(60*kd)].

[4] = molecular target: T2, mouse CD40 extracellular domain …; assay: SPR Biacore 4000, mAb captured, 25C
Procedure: as §1, §2

[5] = molecular target: T4, human CD40 extracellular domain expressed with a C-terminal myc-myc-hexahistidine tag (human); assay: SPR Biacore 4000, mAb captured, 25C
T4 construct: also called hCD40-MMH; hCD40-mmH
Procedure: as §1, §2

[6] = molecular target: T1, monkey CD40 extracellular domain …; assay: SPR Biacore 4000, mAb captured, 37C
Procedure: as §1, §2

[7] = molecular target: T2, mouse CD40 extracellular domain …; assay: SPR Biacore 4000, mAb captured, 37C
Procedure: as §1, §2

[8] = molecular target: T4, human CD40 extracellular domain …; assay: SPR Biacore 4000, mAb captured, 37C
Procedure: as §1, §2

[9] = molecular target: T4, human CD40 extracellular domain …; assay: SPR Biacore 4000, mAb captured, 25C; 25° C.
Procedure: The equilibrium dissociation constants (KD) for anti-CD40 bivalent and bispecific monoclonal antibodies (mAbs) were determined using a real-time surface plasmon resonance (SPR)-based Biacore 4000 biosensor. All binding studies were performed in 10 mM HEPES, 150 mM NaCl, 3 mM EDTA, and 0.05% v/v surfactant Tween-20, pH 7.4 (HBS-ET) running buffer at 25° C. and 37° C. The Biacore CM5 sensor surface was first derivatized by amine coupling with a monoclonal mouse anti-human Fc antibody (REGN2567) to capture anti-CD40 bivalent parental and anti-CD40×CD40 bispecific antibodies. […] The dissociation of different CD40 reagents bound to anti-CD40 bivalent parental and anti-CD40×CD40 bispecific antibodies was monitored for 10 minutes in HBS-ET running buffer. […]
as §2

Binder	Max % activation, no ligand, Ramos NFkB-luc [1]	Max % inhibition, 500 pM hCD40L, Ramos NFkB-luc [1]	Max % activation, no ligand, THP-1 NFkB-luc [2]	Max % inhibition, 10 nM hCD40L, THP-1 NFkB-luc [2]	100 nM Ag Bound [3]	Kd [3]	koff [3]	kon [3]	t1/2 [3]	100 nM Ag Bound [4]	binding result [4]	100 nM Ag Bound [5]	Kd [5]	koff [5]	t1/2 [5]	100 nM Ag Bound [7]	100 nM Ag Bound [8]	Kd [8]	koff [8]	kon [8]	further results
B1	8%	-130%	2%	-61%	63.1 RU	0.901 nM	0.00102 s⁻¹	1.14e+06 M⁻¹ s⁻¹	11.3 min	0.2 RU	no binding (tested: 100 nM)	62 RU	1.83 nM	0.000998 s⁻¹	11.6 min	0.2 RU	66.5 RU	6 nM	0.00372 s⁻¹	620000 M⁻¹ s⁻¹	EC50 (potentiation), 500 pM hCD40L, Ramos NFkB-luc [1]: 8.14e-12 M; EC50 (potentiation), 10 nM hCD40L, THP-1 NFkB-luc [2]: 2.51 pM; kon [5]: 546000 M⁻¹ s⁻¹; Kd [6]: 3.16 nM; koff [6]: 0.00333 s⁻¹; kon [6]: 1.05e+06 M⁻¹ s⁻¹; t1/2 [6]: 3.5 min; t1/2 [8]: 3.1 min
B2	13%	88%	5%	99%	10.3 RU	205 nM	0.181 s⁻¹	886000 M⁻¹ s⁻¹	0.1 min	0.4 RU	no binding (tested: 100 nM)	99 RU	8.82 nM	0.00339 s⁻¹	3.4 min	1.6 RU	105 RU	19.4 nM	0.0123 s⁻¹	635000 M⁻¹ s⁻¹	IC50, 500 pM hCD40L, Ramos NFkB-luc [1]: 3.09e-11 M; IC50, 10 nM hCD40L, THP-1 NFkB-luc [2]: 276 pM; t1/2 [8]: 0.9 min; kon [9]: 385000 M⁻¹ s⁻¹
